Assay results reported in PMC5964162.

Target: Human complement C1q (human) (UniProt P02745)
Test: ELISA

Chain of UniProt P02745 (P02745 23-245, chain 1 of 3): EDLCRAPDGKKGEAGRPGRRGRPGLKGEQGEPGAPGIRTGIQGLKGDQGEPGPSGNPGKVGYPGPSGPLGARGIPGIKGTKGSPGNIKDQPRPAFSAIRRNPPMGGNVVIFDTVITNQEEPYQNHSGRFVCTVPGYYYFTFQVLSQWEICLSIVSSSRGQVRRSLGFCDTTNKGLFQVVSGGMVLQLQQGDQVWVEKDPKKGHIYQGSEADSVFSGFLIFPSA
Chain of UniProt P02745 (P02746 28-253, chain 2 of 3, further chain): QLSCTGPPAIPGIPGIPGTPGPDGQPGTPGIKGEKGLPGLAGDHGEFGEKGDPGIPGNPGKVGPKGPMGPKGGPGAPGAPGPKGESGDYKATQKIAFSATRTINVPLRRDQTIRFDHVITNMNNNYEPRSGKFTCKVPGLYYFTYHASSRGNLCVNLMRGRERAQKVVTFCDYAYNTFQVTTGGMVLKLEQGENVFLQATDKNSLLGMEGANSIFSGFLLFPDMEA
Chain of UniProt P02745 (P02747 29-245, chain 3 of 3, further chain): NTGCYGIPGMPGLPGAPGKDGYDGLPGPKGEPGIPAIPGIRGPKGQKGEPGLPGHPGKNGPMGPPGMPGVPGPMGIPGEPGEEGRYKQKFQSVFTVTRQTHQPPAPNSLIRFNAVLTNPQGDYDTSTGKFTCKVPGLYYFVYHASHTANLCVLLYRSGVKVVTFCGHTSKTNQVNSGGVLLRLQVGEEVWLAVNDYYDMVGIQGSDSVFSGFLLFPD

Substance: Recombinant SntA protein of Streptococcus suis (from UniProt Q8VUN9 1-813) (natural protein)
- percent of C1q–IgG binding left with 50 µM SntA: 3.34%
